The target of the assay is 3xFLAG-CENP-T^Δ161–216 (chicken) (UniProt F1NPG5).

“Mis12 complex (Mis12C) containing GFP-Dsn1^WT (from UniProt Q1T769 1-210; A0A8V0ZA15 1-290)” gave a GFP-Dsn1 (Mis12C) level at mitotic kinetochores in CENP-C^Δ73 cells after IAA of 15%.
